Reference: US20210363241A1 (Eli Lilly, published 2021)

Key:
[1] = target: T1, Cynomolgus monkey CD226 on the cell surface of stably transfected HEK 293 cells (cynomolgus monkey, UniProt A0A2K5W1Z6 19-336); assay: flow cytometry on HEK 293 cells expressing cynomolgus CD226, antibody at 0.14 ug/mL
T1 construct: whole, on cells; also called Cyno-CD226
T1 sequence: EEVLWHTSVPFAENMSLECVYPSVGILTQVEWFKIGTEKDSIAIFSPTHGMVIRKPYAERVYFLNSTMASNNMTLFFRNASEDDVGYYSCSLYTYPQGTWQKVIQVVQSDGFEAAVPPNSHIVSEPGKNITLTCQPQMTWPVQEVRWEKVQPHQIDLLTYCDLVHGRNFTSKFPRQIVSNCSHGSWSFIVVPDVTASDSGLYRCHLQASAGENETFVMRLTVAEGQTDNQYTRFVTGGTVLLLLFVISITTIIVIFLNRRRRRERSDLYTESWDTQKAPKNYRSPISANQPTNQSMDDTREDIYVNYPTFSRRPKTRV
Method: (§1) The ability of the antibodies disclosed herein to bind to cell surface cynomolgus monkey CD226 can be measured using a flow cytometric assay. Cynomolgus monkey CD226 expressing stable cells are generated by transfecting Cyno-CD226 plasmid DNA into human HEK 293 cells (ATCC) using Fugene-6 reagent (Promega) according to the manufacturer's protocol. Stable cells are selected using 0.5 μg/mL puromycin in Dulbecoo's Modified Eagle's Medium containing 10% fetal bovine serum and 1% GlutaMAX™. For flow cytometry, confluent adherent cells are detached using Gibco® Cell Dissociation Buffer (Life Technologies), washed with complete media, then resuspend in FACS buffer (phosphate buffered saline containing 2.5% fetal bovine serum+1 mM EDTA) and then transferred into a 96 well V bottom plate at a density of 5×10⁴ cells/well. […]
(§2) After washing in FACS buffer, secondary antibody allophycocyanin (APC) conjugated goat anti-human IgG, F(ab′)2 fragment specific antibody (Jackson ImmunoResearch Laboratories) is added at a 1:200 dilution and cells are incubated at room temperature for 30 minutes. […] Flow cytometry data is analyzed using FlowJo® Software. Median fluorescence intensity (MFI) ratio is calculated as the (MFI of Experimental antibody)/(MFI of the control IgG).

[2] = target: T2, Recombinant human CD226-Fc fusion protein (R&D Systems) (human); assay: SPR (Biacore T200), human CD226-Fc amine-coupled to chip, antibody injected at 1.95-1000 nM, 25 C, steady state fit
T2 construct: The reagent was bought from R&D Systems; also called Human CD226-ECD-Fc; Human CD226-Extracellular Domain-Fc
Method: A Biacore T200 instrument can be used to measure the kinetics of immobilized human CD226-Fc binding to Antibody 1. Recombinant human CD226-Fc fusion protein (R&D Systems) is covalently immobilized to a CMS sensor chip via amine coupling (GE Healthcare). CD226 antibody testing is performed at a flow rate of 100 μL/min in HBS-EP+buffer. Samples are injected at various concentrations and measurements obtained at 25° C. The surface is regenerated after each sample injection with 10 mM Glycine-HCl pH 2.1 at flow rate of 10 μL/min for 30 seconds and then stabilized with buffer for 10 seconds. Sensorgrams of concentrations ranging from 1.95 nM to 1000 nM are evaluated using Biacore T200 software. The equilibrium dissociation constant (KD) or binding affinity constant is calculated from steady state fit. In experiments performed essentially as described above, Antibody 1 binds to human CD226 with the affinity constants illustrated in Table 2.

[3] = target: T2, Recombinant human CD226-Fc fusion …; assay: ELISA, plate coated with human CD226-Fc, anti-human F(ab')2-HRP detection
Method: The ability of the antibodies disclosed herein to bind human CD226 can be measured by ELISA. To measure binding to human CD226, a 96-well plate (Immulon 2HB) is coated with human CD226-Fc (R&D Systems) overnight at 4° C. Wells are blocked for 2 h with blocking buffer (PBS containing 1% bovine serum albumin). Wells are washed three times with PBS containing 0.1% Tween-20. Antibody 1 or control IgG (100 μL) is then added at different concentrations and incubated at room temperature for 1 h. After washing, the plate is incubated with 100 μL of goat anti-human IgG F(ab′)2-HRP conjugate (Jackson Immuno Research Laboratories) at room temperature for 45 minutes. The plates are washed and then incubated with 100 μL of 3,3′, 5,5′-tetra-methylbenzidine. The absorbance at 450 nm is read on a SpectraMax® microplate reader. The half maximal effective concentration (EC50) is calculated using GraphPad Prism 7 software.

[4] = target: T3, Human CD226 on the cell surface of stably transfected HEK 293 cells (human, UniProt Q15762 19-336); assay: cell-based or functional assay
T3 sequence: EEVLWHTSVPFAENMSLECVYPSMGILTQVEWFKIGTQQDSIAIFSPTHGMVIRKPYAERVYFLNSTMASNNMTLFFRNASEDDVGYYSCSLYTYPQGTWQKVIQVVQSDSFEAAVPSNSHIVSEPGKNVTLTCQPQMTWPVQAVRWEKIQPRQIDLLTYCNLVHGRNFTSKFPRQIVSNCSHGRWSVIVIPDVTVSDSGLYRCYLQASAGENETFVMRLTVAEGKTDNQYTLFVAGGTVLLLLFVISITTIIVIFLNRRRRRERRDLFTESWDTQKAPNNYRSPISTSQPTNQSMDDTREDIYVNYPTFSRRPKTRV

[5] = target: T3, Human CD226 on the cell surface of …; assay: flow cytometry on HEK 293 cells expressing human CD226, antibody at 0.14 ug/mL
Method: as §1, with “Human” for “cynomolgus monkey”, “Human” for “Cynomolgus monkey”, “human-CD226” for “Cyno-CD226”
as §2

B1: Antibody 1 (antibody, human IgG1, kappa, V domains shown)
VH: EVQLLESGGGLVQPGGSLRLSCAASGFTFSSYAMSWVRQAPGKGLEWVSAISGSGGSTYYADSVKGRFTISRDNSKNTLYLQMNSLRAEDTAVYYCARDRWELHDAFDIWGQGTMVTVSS
VL: VIWMTQSPSSLSASVGDRVTITCRASQSISSYLNWYQQKPGKAPRLLIYRASTLQSGVPSRFSGDGSGTHFTLTISSLQPEDFATYYCQQSYSTPDTFGQGTKVEIKR
notes: also called anti-human CD226 agonist antibody; human anti-human CD226 IgG1-effector null (IgG1-EN) antibody
B1 was tested, and the “MFI ratio (MFI of antibody / MFI of control IgG)” value [1] was 2920, the Kd [2] was 334 nM and the EC50 [3] was 0.1 nM. For the same binder, the “NF-kB luciferase reporter EC50” value [4] was 4.11 nM and the “MFI ratio (MFI of antibody / MFI of control IgG)” value [5] was 851.
